Measurements: the DeepSol protein solubility set

Experiment: soluble on expression in E. coli; label from the status in PepcDB or PDB records

Row | Sequence | soluble on expression in E. coli
1 | MSLALDGKSLSGFSHVHVGSLYNAEALEKSVEEMQVETSRRGYAFAVVRPRGDRNFDAHTVSIVFAIDEGPRTYIERINIRGNTRTRDYVIRREFDISEGDAYNRSLVDRAERRLKNLDFFKTVKITTEPGSSSDRVILDVDVEDKSTGDFSVSGGYSTTQGALAEVSVSERNLLGRGLYAKASVQYGQYARGYSLSFVEPYLLDYRVALGLDFYQREQLANQYISYNIKTLGFSPRLGFGLREDLTLQLRYSIFRQEIGLPTSLRNCNNNIGGPNYNPSPAFLNSIGQFNPNNPTLGCYSDGEASLPIRQELGGQTLTSMLGYTLTYNTLDNNKNPTDGLLIDFRQDFAGVGGDVKYLKTAIDAKYYQPLVSDIVGLVHLQGGILNNVGAYAGQNGIRMLDNFQMGPNLVRGFAPNGIGPRDINFLSTMDALGGTQYWGASVELQMPFWFLPKEVGLKGAVYADAGSLWGYKGPTSNLATNEFNAPGCMPSTSRSNPGTCAGLQFDDTNVVRTSVGVGLIWQSPFGPLRFDYAVPITKGKYDRVQEFRFGGGTTEGHHHHHH | not soluble
2 | MSLALLNVDKLSVHFGDESAPFRAVDRISYSVKQGEVVGIVGESGSGKSVSSLAIMGLIDYPGRVMAEKLEFNGQDLQRISEKERRNLVGAEVAMIFQDPMTSLNPCYTVGFQIMEAIKVHQGGNKSTRRQRAIDLLNQVGIPDPASRLDVYPHQLSGGMSQRVMIAMAIACRPKLLIADEPTTALDVTIQAQIIELLLELQQKENMALVLITHDLALVAEAAHKIIVMYAGQVVETGDAHAIFHAPRHPYTQALLRALPEFAQEGHHHHHH | not soluble
3 | MSLANIKEIARLANVSVSTVSRVLNHHPYVSEEKRKLVHQVMKELDYTPNRTAIDLIRGKTHTVGVILPYSDHPCFDKIVNGITKAAFQHEYATTLLPTNYNPDIEIKYLELLRTKKIDGLIITSRANHWDSILAYQEYGPVIACEDTGDIDVPCAFNDRKTAYAESFRYLKSRGHENIAFTCVREADRSPSTADKAAAYKAVCGRLEDRHMLSGCNDMNDGELAAEHFYMSGRVPTAIYANSDEVAAGIHLFAKKNNWDVEIIGEGNTSISRVLGFPSLDLNLEQLGIAAFSLFLQDEPADIKIQHKFKKKAEGHHHHHH | soluble
4 | MSLANLYLMRSRSDELNTIISTNLLKNYSKIYKNIAIYCPVIYIHRVPVLQGWLEEFNINQTVKSAYGFTFREAMEEFSKDPHNFFNVILEEYEELKRKYDFVLVNSFCEFGILDGFDLSIKLAKNLNTPIAAIINDEDKLIAQKYFDHALDGRNYVLINENFNFEEVQKLKEYDFITPHRFKYELIKQSIKNKKTVVLPESNDERILKAAEILLKSKVVDLILLGDEEKIKQDATRLSLDLSAMQIMNPLNSEYNQKFTSILYEARKSKGMSLEEAKMLVQDKTYFGTLLIHTGKADAMVSGASTTTAETIRPALQLIKTKEGISSVSGIFFMGLEDQVLAFADCAVNPSPTAEQLATSAYVSAMTAKSFGLEPRIALLSYSSGDSGKGESVDLVKEALKIAKEKYPELNIDGPMQFDCAYDPKTAAKKMPNSKIAGHANVYIFPDLNAANICYKAVQRTANALAIGPILQGLKKPVNDLSRGCLVDDIVDTVILSAIQAQEGHHHHHH | soluble
5 | MSLAQGRQVIGLDIGTTSTIAILVRLPDTVVAVASRPTTLSSPHPGWAEEDPAQWWDNARAVLAELKTTAGESDWRPGGICVTGMLPAVVLLDDRGAVLRPSIQQSDGRCGDEVAELRAEVDSEAFLARTGNGVTQQLVTAKLRWIERHEPAVFGAIATVCGSYDYINMLLTGERVVDRNWALEGGFIDLASGTVEADLVALAHIPPSAVPPAHPTHRVLGAVTAEAAALTGLPTGLPVYGGAADHIASALAAGITRPGDVLLKFGGAGDIIVASATAKSDPRLYLDYHLVPGLYAPNGCMAATGSALNWLAKLLAPEAGEAAHAQLDALAAEVPAGADGLVCLPYFLGEKTPIHDPFASGTFTGLSLSHTRGHLWRALLEAVALAFRHHVAVLDDIGHAPQRFFASDGGTRSRVWMGIMADVLQRPVQLLANPLGSAVGAAWVAAIGGGDDLGWDDVTALVRTGEKITPDPAKAEVYDRLYRDFSALYATLHPFFHRSREGHHHHHH | soluble
6 | MSLAQLPSELLSLQLPLRIRIGDAQAFDLGPDPQVTMVIRDPTLLTEITHPSLDALGKAYVEKRLDIEGPISQVIGIGDALSEALGDPDGEASPVRESHDKATDAEAIHYHYDLSNDFYRLWLDPEMVYSCAYFETGREDLATAQLAKLRHLCRKLRLQPGEKLLDVGCGWGGLARLAAREFGVEVTGITLSKEQLALGQERVRAEGLEDRVTLKLLDYRDLPRDGRFDKVVSVGMFEHVGHANLGLYFQQLYDAVRPGGLVMNHGITSLYTDGRPVGKGAGDFIDRYVFPHGELPHLSLAVARMSEAGLEVVDVESLRLHYARTLDFWSANLEAKLKEAARLVPEETLRIWRLYLAGCAYGFKRGWINLHQILANRPHEDGSHELPWSRRDLYAEGHHHHHH | soluble
7 | MSLARCERLRGAALRDVLGRAQGVLFDCDGVLWNGERAVPGAPELLERLARAGKAALFVSNNSRRARPELALRFARLGFGGLRAEQLFSSALCAARLLRQRLPGPPDAPGAVFVLGGEGLRAELRAAGLRLAGDPSAGDGAAPRVRAVLVGYDEHFSFAKLREACAHLRDPECLLVATDRDPWHPLSDGSRTPGTGSLAAAVETASGRQALVVGKPSPYMFECITENFSIDPARTLMVGDRLETDILFGHRCGMTTVLTLTGVSRLEEAQAYLAAGQHDLVPHYYVESIADLTEGLEDEGHHHHHH | soluble
8 | MSLARRHELSIALILQDKFTIAAFSGFIDALRLAADDAAKSRQIRVAWKVFAQHRSPVMASCGLRVATEDGLPVPEDYDYIAICGGNSFADAAPAPQLAQLIQRAHRARVGLLGICTGSFAIARAGLIGDRRFCIHWNVAEPFKALFPRAQISVDRIFIDEGDVITCAGSTAAIDLALYLVMRHCGQDRAQQVMRHMMLSQMRPATMPQAHFYQLPPGDSHPRLRRALHFMEQQLDHPPSVGAIARYCGVSVRQLERIFLQALGQTPNAAFRQMRLNYGRYLLSAGTLPVTEIAHIAGFSDAAHFSREFRRAFHETPSAHRRARSHGPDEGHHHHHH | soluble
9 | MSLARSLNNQRSRLVALVVNAIGNPCEAEEQQLLVHRLQARQLLPIILCCADHSDRLQLMRLASTYQVDHVVVFSDMVSMQDAVDIFHTTKPIIVSFEPLENESVSSIRIDGAEAADEIIDKIVRDGKKRFAYLSGTNSSWIDKLRRKWFADALAKRGLAFEAQAFGDYSYDSGFKEAVLLLHRDKVDAIICGNDVMAIGARDAARRVLGKNTPDDIAIVGQDGIAMAAWDCNDLTTLSLDHVAFIDAVVELIERHDAEVEGPHSITLTCTARWGSEGHHHHHH | not soluble
10 | MSLASVQDLGKVEQAAPAQKLTVTIALSLRDRDAAARYLQEVHTPSSPNYHKFLTPSEFRARYAPTEASLAKVAARLQAAGLSVKRIGSTLLQVSGPAATVQKAFGAEVHVFQNKSVVQGAAARYTAPVRASTPGIDLSDVQAVIGLDSRPHFRPHLRQLPSHLQASMDKSASAVTNGNAPGKWTVTDLARHYNITPLYNKGIHGQGATIGIVTLASFTPSDAFQYWSSIGLATDPNRLTVVDIDGGPGAPSDDGGSSETTLDVEQSGGIAPDAKIIVYQAPNTTQGFVDAFAKAIESNAADTLSVSWGEWEWFDQQSQAVNPVNGKSANVLQTYHDLFLQAALQGQTMFAASGDSGAYDVNRAAPLPQYNKVLSVDSPANQQFITAAGATTVPTTLTFHPNGKEMKIKIPTERAWGWDYLNGLCKALGKDPVACGTFPVGDGGGVSSFIGRPFYQNWLPGMQNSPAGQQLVDSSQNPPQVIATLPANFKGRNVPDISMNGDPETGYVVYYTSSKTGFSIQTNNGGTSFVAPQLAGITALLNQSLGGRLGLLNFSLYGLVATGHGYQGFGRHGAPLRDITAGNNWGYNAHRGYDQATGVGAPDVANLDAALRRYFWFEGHHHHHH | not soluble
11 | MSLASYLDFEKNIQQIDEDIINAQIKGDTEAVSILKKNLEKEISKTYKNLSDFQRLQLARHPDRPYALDYIELILNDAHEIHGDRAFRDDPAIVCFMGYLGEKKIIVIGEQKGRGTKDKIARNFGMPHPEGYRKALRVAGLAEKFQIPILFLIDTPGAYPGIGAEERGQSEAIARNLYELSDLKIPTIAIVIGEGGSGGALAIGVADKLAMMKNSVFSVISPEGCAAILWNDPAKSEAATKAMKVTADDLKSQGLIDDVIDEPTNGAHRNKEAAAVAIADYVKKSLNELENIDVRELSANRMQKILKLGAYQEAEGHHHHHH | soluble
12 | MSLATTHLDVCAVVPAAGFGRRMQTECPKQYLSIGNQTILEHSVHALLAHPRVKRVVIAISPGDSRFAQLPLANHPQITVVDGGDERADSVLAGLKAAGDAQWVLVHDAARPCLHQDDLARLLALSETSRTGGILAAPVRDTMKRAEPGKNAIAHTVDRNGLWHALTPQFFPRELLHDCLTRALNEGATITDEASALEYCGFHPQLVEGRADNIKVTRPEDLALAEFYLTRTIHQENT | soluble
13 | MSLAVLDSGGGSALLKMGRQCEVGSQAYDSSTVSSNLQKAETNGPVGLAGTAEQEQQYDVHGNVISAAVYQKFHVYGPEDMVFDGDAGGLTIPGAGAFWGTLFTSDLQRLYKDTVSFQYNALGTYLNINFFDSSGGFLGHIQAGAVSAVVGVGGGSGSWHNWEVAEGHHHHHH | soluble
14 | MSLCGIAGFFSRRPVNPAVPQAMLDELHRRGPDDASRLLLDSELNPADGGAIHNAMLHARLAIVDPRPVANQPMASDDGQVWICYNGEVYDWEIGKAELEAGGAVFRTHSDTEFILRGYQAWGIEGLLERLRGMFAFAILDKRCEKVHLARDRMGEKPLLYSLQDGDFAYGSLVRAVLPFLPADKRAFSPAAIDAYLAHRYIPSPATVFSHINRLENGYRLEFDLNTRQLTKQRYWQPKAESGDWLPELDRAVAMRTVADRPLGVLLSGGIDSTVIASRLAIQQLTQFSSFTAAFPGSTLDESGDAADSARRMGLPNVRVDMPENLAADFERIVADLDQPFADPSSFPTWYLAREVTKHVKVVLVGDGGDELLAGYKRMGKHLRTRWRQNIRLPLPIKPQLDSKRGKLATELAMDWKSAYSLRFSGFTPGQRSFLQGGRKLEKLCHWRAPDDIGPEPGDGSPGLHQLLELDFANYLPDYILQKSDLCTMAHGLEGRAPLLDHGFYQRLLSTSAAERYTRPAKLIFRRAIHPALPTDFFQRKKRGFNPPLSGWLKTSLAPRFDGLGSRLAEASGGQLDAGAVDAFARAYRDGAGHLAEQMLQLLILDESLTQLRRLCRELGEGHHHHHH | soluble
15 | MSLCGIVAFYYPEINDKQAAIGKMMATIQHRGPSSDGMYTNDKVALGFRRLSIIDLRCGSQPIYNEDRSRAIIFNGEIYNFKPLREELIKAGHTFSTKADTEVILHGYEEWGMDGILKRVRGMFAFIIWDDNTQTMYGARDFFGIKPMYYQDVDGHLLVGSELKSFLAFPHFKKELNTEAVKPYLMNQYNDLKETFFKGVYRFQPGHWFEYKDGKMKTHQYWDAEYKDNNLSFEETVKKINEDLKETVDLYRNADVKVGAFLSEGVDSSFLTALLDPDEVFSIGFDDNTYDEASKAKALADINGWHFYADKVYSEEAMRDFPEMQYHMDEPDANPSIIPLWYLCKLARKHVTVALSGEGADELFAGYVNYGMHTHNNVIKVFTDKLKKLPKGKRVKLAHKIKKMPNFPGKVHLYTNLAEPSEFYVGQSVIYDMDYPTIFTSKDANAVLQPSYRNKLTVNGNYQEDFKKVKDLDNVKQMQYIDLHHFMLNDIEQKADKISMAHSLELRVPYLDVKIAKLANSIPSKYLVNKYDTKYALRKASEQVLPDEWAKRPKLGFPTPIKQWLQEERFYKQVRDLFSEDFVNDIFEQKKILDLLDENYNGDGSHRRQIWVIYTFLVWYKLFFVDYEEGHHHHHH | soluble
